Biological target: catalase (human) (UniProt P04040)
Sequence of UniProt P04040 (P04040 5-501): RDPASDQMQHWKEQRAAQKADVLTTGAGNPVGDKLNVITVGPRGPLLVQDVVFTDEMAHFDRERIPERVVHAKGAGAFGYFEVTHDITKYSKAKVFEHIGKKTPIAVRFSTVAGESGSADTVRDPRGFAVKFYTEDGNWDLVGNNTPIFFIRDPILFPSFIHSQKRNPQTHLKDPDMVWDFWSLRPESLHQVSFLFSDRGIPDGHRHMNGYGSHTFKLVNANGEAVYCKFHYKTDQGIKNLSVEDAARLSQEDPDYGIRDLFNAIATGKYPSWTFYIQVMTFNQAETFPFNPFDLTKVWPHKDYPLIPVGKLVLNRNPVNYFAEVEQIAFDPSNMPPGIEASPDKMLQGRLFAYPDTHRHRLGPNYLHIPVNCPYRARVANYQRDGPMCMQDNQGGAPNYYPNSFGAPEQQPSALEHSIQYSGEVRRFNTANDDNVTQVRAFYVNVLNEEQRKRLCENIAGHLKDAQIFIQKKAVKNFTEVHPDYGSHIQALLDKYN

H2O2 level in the blood of healthy controls after a 2 h incubation with E22K (H2O2 kit): 86.5
Substance: Aβ42 E22K (Italian type mutation, glutamic acid 22-to-lysine) (peptide)

Source: article PMC7775154
